From the RNAGym collection of RNA variant scans (doi:10.7554/elife.80360)

B1: HDV Ribozyme (parent)
chain: GGCCGGCAUGGUCCCAGCCUCCUCGCUGGCGCCGGCUGGGCAACAUUCCGAGGGGACCGUCCCCUCGGUAAUGGCGAAUGGGACCCA

Variants of: B1
Assay: self-cleavage, relative activity (ratio to wild type); higher = more cleavage; co-transcriptional

| Variant | self-cleavage |
| --- | --- |
| GGCCGGCAUGGUCCCAGCCUCCUCGCUGGCGCCGGCUGGGCAACAUUUCGAGGGGACCGUCCCCUCGGUAAUGACGAAUGGGACCCA [C48U G74A] | 0.517 |
| GGCCGGCAUGGUCCCAGCCUCCUCGCUGGCGCCGGCUGGGCAACAUUGCGAGGAGACCGUCCCCUCGGUAAUGGCGAAUGGGACCCA [C48G G54A] | 0.372 |
| GGCCGGCAUGGUCCCAGCCUCCUCGCUGGCGCCGGCUGGGCAACAUUUCUAGGGGACCGUCCCCUCGGUAAUGGCGAAUGGGACCCA [C48U G50U] | 0.742 |
| GGCCGGCAUGGUCCCAGCCUCCUCGCUGGCGCCGGCUGGGCAACAUUGCGAGGGGACCGUCCCCUCGGUAAUGACGAAUGGGACCCA [C48G G74A] | 0.305 |
| GGCCGGCAUGGUCCCAGCCUCCUCGCUGGCGCCGGCUGGGCAACAUUGCGAGGGGACCGUCCCCUCGGUAAUGCCGAAUGGGACCCA [C48G G74C] | 0.0755 |
| GGCCGGCAUGGUCCCAGCCUCCUCGCUGGCGCCGGCUGGGCAACAUUUCGAGGGGACCGUUCCCUCGGUAAUGGCGAAUGGGACCCA [C48U C61U] | 0.856 |
| GGCCGGCAUGGUCCCAGCCUCCUCGCUGGCGCCGGCUGGGCAACAUUGCGAGGGGACCGUCCCCUCGGUGAUGGCGAAUGGGACCCA [C48G A70G] | 0.772 |
| GGCCGGCAUGGUCCCAGCCUCCUCGCUGGCGCCGGCUGGGCAACAUUUCGAGGGGACCGUCCCAUCGGUAAUGGCGAAUGGGACCCA [C48U C64A] | 0.554 |
| GGCCGGCAUGGUCCCAGCCUCCUCGCUGGCGCCGGCUGGGCAACAUUUCGAGGGGACCGUCCCCUCGGUAAUGGCGAAUAGGACCCA [C48U G80A] | 0.297 |
| GGCCGGCAUGGUCCCAGCCUCCUCGCUGGCGCCGGCUGGGCAACAUUGCGAGGGGACCGACCCCUCGGUAAUGGCGAAUGGGACCCA [C48G U60A] | 0.864 |
| GGCCGGCAUGGUCCCAGCCUCCUCGCUGGCGCCGGCUGGGCAACAUUGCGAGGGGACCGUCCCCUCAGUAAUGGCGAAUGGGACCCA [C48G G67A] | 0.91 |
| GGCCGGCAUGGUCCCAGCCUCCUCGCUGGCGCCGGCUGGGCAACAUUGCGAGGGGACCGUCUCCUCGGUAAUGGCGAAUGGGACCCA [C48G C62U] | 0.746 |
| GGCCGGCAUGGUCCCAGCCUCCUCGCUGGCGCCGGCUGGGCAACAUUGCGAGGGGACCGUCACCUCGGUAAUGGCGAAUGGGACCCA [C48G C62A] | 0.35 |
| GGCCGGCAUGGUCCCAGCCUCCUCGCUGGCGCCGGCUGGGCAACAUUGCGAGGGGACCGUCGCCUCGGUAAUGGCGAAUGGGACCCA [C48G C62G] | 0.269 |
| GGCCGGCAUGGUCCCAGCCUCCUCGCUGGCGCCGGCUGGGCAACAUUACGAGGGGACCGUCCCCACGGUAAUGGCGAAUGGGACCCA [C48A U65A] | 0.845 |
| GGCCGGCAUGGUCCCAGCCUCCUCGCUGGCGCCGGCUGGGCAACAUUGCGAGGGGACCGUCCCCUCGGUAAUGGCGAGUGGGACCCA [C48G A78G] | 0.86 |

| Variant | self-cleavage |
| --- | --- |
| GGCCGGCAUGGUCCCAGCCUCCUCGCUGGCGCCGGCUGGGCAACAUUGCGAGGGGACCGUCCCCUCGGUAAUGGCGACUGGGACCCA [C48G A78C] | 0.199 |
| GGCCGGCAUGGUCCCAGCCUCCUCGCUGGCGCCGGCUGGGCAACAUUGCGAGGGGACCGUCCCCUCGGUAAUGGCGAAUGAGACCCA [C48G G81A] | 0.489 |
| GGCCGGCAUGGUCCCAGCCUCCUCGCUGGCGCCGGCUGGGCAACAUUGCGAGGGGACCGUCCCCUCGGUAAUGGCGAAUGCGACCCA [C48G G81C] | 0.185 |
| GGCCGGCAUGGUCCCAGCCUCCUCGCUGGCGCCGGCUGGGCAACAUUUCGAGGGGACCGUCCCCUCGGUAAUGGCGAAUGGGACCCU [C48U A87U] | 0.942 |
| GGCCGGCAUGGUCCCAGCCUCCUCGCUGGCGCCGGCUGGGCAACAUUUCGAGGGGACCGUCCCCUCGGUCAUGGCGAAUGGGACCCA [C48U A70C] | 0.649 |
| GGCCGGCAUGGUCCCAGCCUCCUCGCUGGCGCCGGCUGGGCAACAUUGCGAGGGGACCGUCCCCUCGGUAAUGGCGAAUGGGACCAA [C48G C86A] | 1.09 |
| GGCCGGCAUGGUCCCAGCCUCCUCGCUGGCGCCGGCUGGGCAACAUUGCGAGGGGACCGUCCCUUCGGUAAUGGCGAAUGGGACCCA [C48G C64U] | 0.85 |
| GGCCGGCAUGGUCCCAGCCUCCUCGCUGGCGCCGGCUGGGCAACAUUGCGAGGGGACCGUCCCGUCGGUAAUGGCGAAUGGGACCCA [C48G C64G] | 0.266 |
| GGCCGGCAUGGUCCCAGCCUCCUCGCUGGCGCCGGCUGGGCAACAUUUCGAGGGGACCGUCCCCUCGGUAAUGGAGAAUGGGACCCA [C48U C75A] | 0.199 |
| GGCCGGCAUGGUCCCAGCCUCCUCGCUGGCGCCGGCUGGGCAACAUUUCGAGGGGACCAUCCCCUCGGUAAUGGCGAAUGGGACCCA [C48U G59A] | 1.06 |
| GGCCGGCAUGGUCCCAGCCUCCUCGCUGGCGCCGGCUGGGCAACAUUUCGAGGGGACCGUCCCCUCGGUAAUGGCGACUGGGACCCA [C48U A78C] | 0.115 |
| GGCCGGCAUGGUCCCAGCCUCCUCGCUGGCGCCGGCUGGGCAACAUUGGGAGGGGACCGUCCCCUCGGUAAUGGCGAAUGGGACCCA [C48G C49G] | 0.906 |
| GGCCGGCAUGGUCCCAGCCUCCUCGCUGGCGCCGGCUGGGCAACAUUUCGAGGGGACCGUCCUCUCGGUAAUGGCGAAUGGGACCCA [C48U C63U] | 0.969 |
| GGCCGGCAUGGUCCCAGCCUCCUCGCUGGCGCCGGCUGGGCAACAUUUCGAGGGGACCGUCCGCUCGGUAAUGGCGAAUGGGACCCA [C48U C63G] | 0.542 |
| GGCCGGCAUGGUCCCAGCCUCCUCGCUGGCGCCGGCUGGGCAACAUUUCGAUGGGACCGUCCCCUCGGUAAUGGCGAAUGGGACCCA [C48U G52U] | 0.577 |
| GGCCGGCAUGGUCCCAGCCUCCUCGCUGGCGCCGGCUGGGCAACAUUUCGAGGGGACAGUCCCCUCGGUAAUGGCGAAUGGGACCCA [C48U C58A] | 1.06 |
